Changes are numbered by the printed parent chain. In names and notes the source's numbering stands. One block for each binder: values may come before it.
Biological target: T1, TNFR1 (Homo sapiens, UniProt P19438)
T1 chain: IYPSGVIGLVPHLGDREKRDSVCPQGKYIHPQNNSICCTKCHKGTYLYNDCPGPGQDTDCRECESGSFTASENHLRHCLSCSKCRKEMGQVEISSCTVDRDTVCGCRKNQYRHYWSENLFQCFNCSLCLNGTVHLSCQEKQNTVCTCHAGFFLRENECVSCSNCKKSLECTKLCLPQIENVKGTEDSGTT
Assay: yeast display SC50

B4: A15D (designed binder)
chain: MTLQELLREEALRRDEAEAFRYALELLAEKFPEQKEYLLDLAEEIESQIRSLSGVDVEDVRKFLDKEWAWVKELLAEHPAELAEVEAARAARLAELRAEVEAKVAA
apparent Kd (screen): 0.718 nM

B5: L27M (designed binder)
chain: B4 chain with D15A, L27M
apparent Kd (screen): 0.593 nM

B6: A11S (designed binder)
chain: B4 chain with A11S, D15A
apparent Kd (screen): 0.956 nM

B7: L6M (designed binder)
chain: B4 chain with L6M, D15A
apparent Kd (screen): 1.86 nM

B9: L26Y (designed binder)
chain: B4 chain with D15A, L26Y
apparent Kd (screen): 0.593 nM

B10: D59A (designed binder)
chain: B4 chain with D15A, D59A
apparent Kd (screen): 0.539 nM

B12: L6I (designed binder)
chain: B4 chain with L6I, D15A
apparent Kd (screen): 0.539 nM

B17: R13D (designed binder)
chain: B4 chain with R13D, D15A
apparent Kd (screen): 1.69 nM

B19: L41T (designed binder)
chain: B4 chain with D15A, L41T
apparent Kd (screen): 0.539 nM

B21: Y37C (designed binder)
chain: B4 chain with D15A, Y37C
apparent Kd (screen): 3 nM

B24: A23G (designed binder)
chain: B4 chain with D15A, A23G
apparent Kd (screen): 0.49 nM

B27: L27G (designed binder)
chain: B4 chain with D15A, L27G
apparent Kd (screen): 0.539 nM

B28: L6G (designed binder)
chain: B4 chain with L6G, D15A
apparent Kd (screen): 22.2 nM

B30: E18G (designed binder)
chain: B4 chain with D15A, E18G
apparent Kd (screen): 0.49 nM

B31: E16V (designed binder)
chain: B4 chain with D15A, E16V
apparent Kd (screen): 0.446 nM

B34: V60E (designed binder)
chain: B4 chain with D15A, V60E
apparent Kd (screen): 4.39 nM

B36: K35A (designed binder)
chain: B4 chain with D15A, K35A
apparent Kd (screen): 1.27 nM

B38: E16C (designed binder)
chain: B4 chain with D15A, E16C
apparent Kd (screen): 0.593 nM

B39: V60L (designed binder)
chain: B4 chain with D15A, V60L
apparent Kd (screen): 0.593 nM

B44: A11P (designed binder)
chain: B4 chain with A11P, D15A
apparent Kd (screen): 2.25 nM

B45: A42V (designed binder)
chain: B4 chain with D15A, A42V
apparent Kd (screen): 0.718 nM

B48: R50A (designed binder)
chain: B4 chain with D15A, R50A
apparent Kd (screen): 0.539 nM

B50: W68H (designed binder)
chain: B4 chain with D15A, W68H
apparent Kd (screen): 2.73 nM

B51: A11V (designed binder)
chain: B4 chain with A11V, D15A
apparent Kd (screen): 0.49 nM

B53: L7E (designed binder)
chain: B4 chain with L7E, D15A
apparent Kd (screen): 15.2 nM

B54: F20V (designed binder)
chain: B4 chain with D15A, F20V
apparent Kd (screen): 0.49 nM

B55: K66R (designed binder)
chain: B4 chain with D15A, K66R
apparent Kd (screen): 0.869 nM

B56: K66Q (designed binder)
chain: B4 chain with D15A, K66Q
apparent Kd (screen): 0.653 nM

B59: R14L (designed binder)
chain: B4 chain with R14L, D15A
apparent Kd (screen): 0.956 nM

More lines, now with the values ahead:

apparent Kd (screen): 0.446 nM
B1: A98K (designed binder)
chain: B4 chain with D15A, A98K

apparent Kd (screen): 0.718 nM
B2: K103M (designed binder)
chain: B4 chain with D15A, K103M

apparent Kd (screen): 22.2 nM
B3: W70A (designed binder)
chain: B4 chain with D15A, W70A

apparent Kd (screen): 0.653 nM
B8: A106S (designed binder)
chain: B4 chain with D15A, A106S

apparent Kd (screen): 0.869 nM
B11: R92H (designed binder)
chain: B4 chain with D15A, R92H

apparent Kd (screen): 1.69 nM
B13: V71F (designed binder)
chain: B4 chain with D15A, V71F

apparent Kd (screen): 0.539 nM
B14: K72N (designed binder)
chain: B4 chain with D15A, K72N

apparent Kd (screen): 0.446 nM
B15: A76Q (designed binder)
chain: B4 chain with D15A, A76Q

apparent Kd (screen): 0.593 nM
B16: A91C (designed binder)
chain: B4 chain with D15A, A91C

apparent Kd (screen): 1.54 nM
B18: L82G (designed binder)
chain: B4 chain with D15A, L82G

apparent Kd (screen): 0.653 nM
B20: P79I (designed binder)
chain: B4 chain with D15A, P79I

apparent Kd (screen): 0.539 nM
B22: E99D (designed binder)
chain: B4 chain with D15A, E99D

apparent Kd (screen): 2.25 nM
B23: R92P (designed binder)
chain: B4 chain with D15A, R92P

apparent Kd (screen): 2.48 nM
B25: L82K (designed binder)
chain: B4 chain with D15A, L82K

apparent Kd (screen): 0.49 nM
B26: A88H (designed binder)
chain: B4 chain with D15A, A88H

apparent Kd (screen): 0.653 nM
B29: E84S (designed binder)
chain: B4 chain with D15A, E84S

apparent Kd (screen): 0.593 nM
B32: E73A (designed binder)
chain: B4 chain with D15A, E73A

apparent Kd (screen): 0.718 nM
B33: E95P (designed binder)
chain: B4 chain with D15A, E95P

apparent Kd (screen): 0.539 nM
B35: A83H (designed binder)
chain: B4 chain with D15A, A83H

apparent Kd (screen): 0.593 nM
B37: R92G (designed binder)
chain: B4 chain with D15A, R92G

apparent Kd (screen): 0.539 nM
B40: E73H (designed binder)
chain: B4 chain with D15A, E73H

apparent Kd (screen): 0.79 nM
B41: A105Y (designed binder)
chain: B4 chain with D15A, A105Y

apparent Kd (screen): 0.956 nM
B42: A102I (designed binder)
chain: B4 chain with D15A, A102I

apparent Kd (screen): 0.653 nM
B43: A102F (designed binder)
chain: B4 chain with D15A, A102F

apparent Kd (screen): 0.593 nM
B46: K103V (designed binder)
chain: B4 chain with D15A, K103V

apparent Kd (screen): 0.653 nM
B47: R92S (designed binder)
chain: B4 chain with D15A, R92S

apparent Kd (screen): 0.653 nM
B49: H78E (designed binder)
chain: B4 chain with D15A, H78E

apparent Kd (screen): 0.539 nM
B52: V104F (designed binder)
chain: B4 chain with D15A, V104F

apparent Kd (screen): 2.48 nM
B57: V71Y (designed binder)
chain: B4 chain with D15A, V71Y

apparent Kd (screen): 0.869 nM
B58: E86S (designed binder)
chain: B4 chain with D15A, E86S

From publication PMC12416549 (2024)
